Data: the supplement of paper PMC10567573

B1: TOR1AIP2 (parent)
chain: YTSSQKVSPIQIDGAGRTWQDSDT

Variants of: B1
Assay: protein stability index of a GFP-peptide fusion (GPS, HEK-293T) (PSI 1-6); higher = more stable
Conditions: c terminus: a fixed tail appended
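Also: lentivirally expressed fusions sorted by FACS into six bins by GFP to DsRed ratio, PSI derived from sequencing read proportions per bin multiplied by bin number.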

Protein stability index of substitutions, site by site:
I10: Y 1.57 | R 3.76 | H 3.5 | D 4.32 | N 4.2 | K 3.33 | T 3.96 | P 4.18 | V 4.1 | L 3.52 | M 3.44 | E 4.58 | W 2.4 | Q 4 | G 3.85 | C 3.25 | A 3.77 | S 3.93 | F 1.85
S3: N 4.21 | D 4.32 | T 3.08 | W 3.04 | P 2.57 | C 3.55 | Q 3.82 | K 3.82 | I 3.13 | M 3.01 | G 3.61 | V 3.3 | Y 2.81 | R 3.39 | F 2.95 | E 3.87 | L 3.18 | A 3 | H 4.38
T2: S 4.31 | W 2.83 | Y 3.54
Q5: V 3.31 | S 3.87 | N 3.04 | E 4.2 | I 3.12 | H 2.87 | R 3.35 | M 3.86 | P 2.96 | Y 2.34 | C 2.13 | L 3.58 | K 3.45 | T 3.6 | D 4.04 | G 3.38 | A 3.08
V7: C 2.67 | I 2.9 | P 3.6 | E 3.46 | G 3.96 | H 3.58 | S 3.52 | Q 4.19 | A 3.41 | Y 1.54 | F 3.64 | K 4.03 | L 3.12 | R 3.43 | D 3.67 | T 3.78 | M 2.51 | N 3.97
P9: V 2.66 | K 3.71 | M 3.12 | C 3.02 | Q 3.44 | Y 2.22 | T 3.98 | R 3.37 | G 3.45 | D 3.94 | A 3.34 | H 3.22 | L 3.74 | E 4.28 | I 2.69 | N 3.49 | S 4.38 | F 2.05
K6: L 2.9 | D 4.86 | M 3.6 | T 4.03 | Q 3.76 | A 3.58 | R 3.41 | S 3.51 | G 3.42 | Y 1.31 | V 3.52 | F 3.73 | E 4.82 | C 3.04 | H 3.51 | W 3.33 | N 3.97 | P 4.01 | I 3.67
Q11: T 3.56 | L 2.8 | V 2.84 | N 3.4 | E 3.81 | C 2.47 | I 2.72 | F 2.06 | K 3.95 | P 3.93 | M 3.16 | R 3.11 | G 2.06 | A 2.96 | D 3.96 | H 3.67 | S 3.73
S4: N 3.65 | I 2.92 | L 2.84 | V 3.27 | K 2.36 | Y 2.67 | T 3.34 | C 2.78 | F 2.58 | M 2.65 | D 4.57 | A 3.06 | R 3.23 | H 3.37 | E 3.35 | P 3.18 | G 3.59 | Q 3.25
S8: V 2.67 | P 3.1 | R 2.67 | G 3.25 | W 3.33 | K 3.46 | E 4.47 | C 3.12 | A 3.52 | L 2.82 | N 4 | Q 3.17 | T 3.36 | M 3.06 | D 2.9 | F 2.75 | Y 2.16 | I 2.35 | H 2.57
